Measurements as given in patent US7795390B2, “Biological substance nesfatin and its related substances and uses thereof” (Teijin Pharma Limited, priority 2005, dated 2010).

What was measured:
Agouti-yellow mice = experiment: Intraperitoneal administration of nesfatin-1 to Agouti-yellow mice, food intake; assay type: in vivo, mouse; details: nesfatin-1 (10 pmol) ip, 0-3 hours
From the text: In the experiment on the animal model of obesity, C57BL/6J mice were used as the control group and Agouti-yellow mice were used as the animal model of obesity, and these animals were purchased from Nippon Charles River (Jackson Lab.). The housing condition and the week age of the mice used were similar to those for the ICR mice, whereas individuals weighing 25-28 g for the control group mice and individuals weighing 31-38 g for the Agouti-yellow mice were selected and used. […] Other conditions were similar to those in the above.
(§1) Each mouse that received administration was placed in an individual cage, and during 0-3 hours after the administration the weight decreased of the pellet food was measured to determine the amount of food intake. For testing of significant difference, analysis of variance was used.

ICR mice = experiment: Intraperitoneal administration of nesfatin-1 to ICR mice, food intake; assay type: in vivo, mouse; details: 0-3 hours
Protocol: The experimental animal was 7 week-old male ICR mice purchased from Japan SLC, Inc., and were housed after purchase in a cycle of 12 hours of the light period from 6 a.m. to 6 p.m. and 12 hours of the dark period from 6 p.m. to 6 a.m. the next morning with free access to a pellet food (Nippon Clea, CE-2), kept at 22° C., and housing was continued in a similar condition during the experiment period. The mice purchased were subjected to preliminary housing for over one week, individuals weighing 35-40 g were selected among 8 to 9 week-old individuals and were used in the experiment.
The sample used in the administration was the recombinant mouse nesfatin-1 prepared in Working Example 16 dissolved in 200 μl of physiological saline so as to contain 2 nmol, 10 nmol or 50 nmol, and as the control sample, physiological saline (Saline) alone was used. Using a tuberculin syringe equipped with a 25G needle, 200 μl each of the sample was administered once into the abdominal cavity of each mouse (5 animals per group), and the time of administration was immediately before the start (6 p.m.) of the dark period.
as §1

Wistar rats = experiment: Administration of nesfatin-1, nesfatin-2, nesfatin-3, nesfatin-2/3 into the third ventricle, amount of food intake; assay type: in vivo, rat
Protocol: Samples used for intracerebral administration were PBS alone (vehicle group), or nesfatin-1, nesfatin-2, nesfatin-3 or nesfatin-2/3 prepared in Working Example 10 each dissolved in PBS, and 25 pmol was administered per individual into the third ventricle immediately before the dark period. Rats used were Wistar rats (purchased from Nippon SLC) and were housed as in Working Example 6, and among 8-9 week-old male Wistar rats, those individuals weighing 200-250 g were selected and used (N=5). The technique of intraventricular administration and the measurement of the amount of food intake in rats were carried out in a method similar to those in Working Example 6. In the measurement of the amount of food intake, the reduced amount of food at 1 hour after administration (0-1 hr) and 2 hours after administration (1-3 hrs) was determined as food intake.
In the same condition above, 1, 5 or 25 pmol of nesfatin-1 as a sample was administered per rat individual into the third ventricle immediately before the dark period. In this experiment, the amount of food intake was determined at 1 hour after administration (0-1 hr).
The experimental condition was similar to that in Working Example 12, and 5 pmol of nesfatin-1 was administered into the third ventricle of the rat brain immediately before the start of the dark period, the amount decreased of the food (the amount of food intake) during 1 hour immediately after administration (0-1 hr), during 2 hours from 1 hour after the administration (1-3 hr), during 3 hours from 3 hours after the administration (3-6 hr), and during 6 hours from 6 hours after the administration (6-12 hr) was measured as the amount of food intake. As the control group, the amount of food intake by individuals that received physiological saline alone was measured.
The experimental condition was similar to that in Working Example 12, and for a group that received 5 pmol of nesfatin-1 alone into the third ventricle of the rat brain immediately before the start of the dark period and a group that received 5 pmol of nesfatin-1 and 8 μg of anti-nesfatin-1 antibody (nesfatin-1 IgG), the amount of food intake for 1 hour after administration was measured and compared to that for the control group (physiological saline alone was administered). Also, for a group that received only leptin (Rat leptin: R & D Systems, 598-LP-01M) (1 μg) which is known to have an activity of suppressing food intake by intraventricular administration and a group that received leptin and anti-nesfatin-1 antibody, its effect on food intake was also studied.

B1: nesfatin-1: 82-residue peptide, amino acid Nos. 25 to 106 of nesfatin (SEQ ID NO: 15), solid-phase synthesis (peptide, listed as Rattus norvegicus)
chain: VPIDVDKTKVHNVEPVESARIEPPDTGLYYDEYLKQVIEVLETDPHFREKLQKADIEEIRSGRLSQELDLVSHKVRTRLDEL
For B1, the “amount of food intake” value (Agouti-yellow mice) was “significantly decreased”, the “amount of food intake” value (ICR mice; recombinant mouse nesfatin-1 2 nmol per mouse ip, vs Saline) was “decreases in the amount of food intake” and the “amount of food intake” value (ICR mice; recombinant mouse nesfatin-1 10 nmol per mouse ip, p<0.05) was “statistically significant decreases in the amount of food intake”. For the same molecule, the “amount of food intake” value (ICR mice; recombinant mouse nesfatin-1 50 nmol per mouse ip, p<0.005) was “statistically significant decreases in the amount of food intake”, the “amount of food intake” value (Wistar rats; 5 pmol into the third ventricle, 0-1 hr, 1-3 hr and 3-6 hr, p<0.01 vs control) was “Significant decreases in the amount of food intake” and the “amount of food intake” value (Wistar rats; 5 pmol into the third ventricle, 6-12 hr, p<0.01 vs control) was “an increase in the amount of food intake”. For the same molecule, the “amount of food intake” value (Wistar rats; 5 pmol or 25 pmol intraventricular, 0-1 hr) was “significant decreased amount of food intake”, the “amount of food intake” value (Wistar rats; 25 pmol into the third ventricle before dark period, 0-1 hr and 1-3 hr, vs control) was “marked effect on the suppression of feeding” and the “amount of food intake” value (Wistar rats; 1, 5 or 25 pmol per rat intraventricular, 0-1 hr, vs saline) was “decreased amount of food intake, with the increased amount of the administered nesfatin-1”.
